The values below come from patent JP2017222678A (dated 2017).

Sequences and labels used below:
T1: ヒトTFPI (human tissue factor pathway inhibitor; American Diagnostica) (human, UniProt P10646 29-304, limits assumed)
T1 construct: Coated on plates (ELISA) or amine-coupled to a CM5 chip (Biacore); also called h-TFPI; hTFPI
T1 sequence (looked up): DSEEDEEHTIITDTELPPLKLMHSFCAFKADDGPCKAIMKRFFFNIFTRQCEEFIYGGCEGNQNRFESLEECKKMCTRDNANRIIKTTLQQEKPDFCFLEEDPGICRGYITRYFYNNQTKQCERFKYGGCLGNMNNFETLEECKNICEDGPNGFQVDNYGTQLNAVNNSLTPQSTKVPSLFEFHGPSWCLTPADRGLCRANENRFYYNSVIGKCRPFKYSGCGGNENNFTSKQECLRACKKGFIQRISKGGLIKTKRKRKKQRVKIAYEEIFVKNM

B1: TP-2C1 (Fab, V domains shown)
VH: QVQLVESGGGLVQPGGSLRLSCAASGFTFSPYVMSWVRQAPGKGLEWVSSISSSSSNTYYADSVKGRFTISRDNSKNTLYLQMNSLRAEDTAVYYCARGDSYMYDVWGQGTLVTVSS
VL: DIELTQPPSVSVAPGQTARISCSGDSIGSYYAHWYQQKPGQAPVLVIYYDSKRPSGIPERFSGSNSGNTATLTISGTQAEDEADYYCQAYTGQSISRVFGGGTKLTVLG
notes: HuCAL Gold human Fab from E. coli TG1
B2: TP-2G9 (Fab, V domains shown)
VH: QVQLVESGGGLVQPGGSLRLSCAASGFTFNSYAMTWVRQAPGKGLEWVSAIKSDGSNTYYADSVKGRFTISRDNSKNTLYLQMNSLRAEDTAVYYCARNDSGWFDVWGQGTLVTVSS
VL: DIALTQPASVSGSPGQSITISCTGTSSDLGGFNTVSWYQQHPGKAPKLMIYSVSSRPSGVSNRFSGSKSGNTASLTISGLQAEDEADYYCQSYDLNNLVFGGGTKLTVLG
notes: as for B1
B3: TP-3C1 (Fab, V domains shown)
VH: QVQLVESGGGLVQPGGSLRLSCAASGFTFSSYSMHWVRQAPGKGLEWVSGISYSSSFTYYADSVKGRFTISRDNSKNTLYLQMNSLRAEDTAVYYCARALGGGVDYWGQGTLVTVSS
VL: B2 VL
notes: HuCAL Gold human Fab from E. coli TG1; Shares its VL entry with TP-2G9 and its VH entry with TP-3F2, as the legends print it
B4: TP-2F9 (Fab, V domains shown)
VH: QVQLVESGGGLVQPGGSLRLSCAASGFTFYKYAMHWVRQAPGKGLEWVSGIQYDGSYTYYADSVKGRFTISRDNSKNTLYLQMNSLRAEDTAVYYCARYYCKCVDLWGQGTLVTVSS
VL: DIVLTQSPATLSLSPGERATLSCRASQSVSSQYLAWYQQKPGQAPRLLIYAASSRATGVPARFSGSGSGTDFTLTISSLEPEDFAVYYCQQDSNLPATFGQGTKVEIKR
notes: as for B1
B5: TP-3A2 (Fab, V domains shown)
VH: QVQLVESGGGLVQPGGSLRLSCAASGFTFSNYYLSWVRQAPGKGLEWVSGISYNGSSTNYADSVKGRFTISRDNSKNTLYLQMNSLRAEDTAVYYCARMWRYSLGADSWGQGTLVTVSS
VL: DIELTQPPSVSVAPGQTARISCSGDNIGSRYAYWYQQKPGQAPVVVIYDDSDRPSGIPERFSGSNSGNTATLTISGTQAEDEADYYCAAYTFYARTVFGGGTKLTVLG
notes: as for B1
B6: TP-2E5 (Fab, V domains shown)
VH: QVQLQQSGPGLVKPSQTLSLTCAISGDSVSSNSAAWSWIRQSPGRGLEWLGMIFYRSKWNNDYAVSVKSRITINPDTSKNQFSLQLNSVTPEDTAVYYCARVNANGYYAYVDLWGQGTLVTVSS
VL: DIQMTQSPSSLSASVGDRVTITCRASQPIYNSLSWYQQKPGKAPKLLIYGVSNLQSGVPSRFSGSGSGTDFTLTISSLQPEDFAVYYCLQVDNLPITFGQGTKVEIKR
notes: as for B1
B7: TP-2G4 (Fab, V domains shown)
VH: QVQLVESGGGLVQPGGSLRLSCAASGFTFSSYAMTWVRQAPGKGLEWVSNISYSGSNTYYADSVKGRFTISRDNSKNTLYLQMNSLRAEDTAVYYCARVGYYYGFDYWGQGTLVTVSS
VL: DIELTQPPSVSVAPGQTARISCSGDALRKHYVYWYQQKPGQAPVLVIYGDNNRPSGIPERFSGSNSGNTATLTISGTQAEDEADYYCQSYDKPYPILVFGGGTKLTVLG
notes: as for B1
B8: TP-3B3 (Fab, V domains shown)
VH: B7 VH with A33G, T35H, S54M, Y59N, V99G, G100L, Y101F, Y102P, Y103G, G104Y
VL: DIELTQPASVSVAPGQTARISCSGDNLRSKYAHWYQQKPGQAPVLVIYGDNNRPSGIPERFSGSNSGNTATLTISGTQAEDEADYYCSAYAMGSSPVFGGGTKLTVLG
notes: as for B1
B9: TP-2A2 (Fab, V domains shown)
VH: QVQLVESGGGLVQPGGSLRLSCAASGFTFSNNAMNWVRQAPGKGLEWVSTISYDGSNTYYADSVKGRFTISRDNSKNTLYLQMNSLRAEDTAVYYCARQAGGWTYSYTDVWGQGTLVTVSS
VL: DIELTQPPSVSVAPGQTARISCSGDNIRTYYVHWYQQKPGQAPVVVIYGDSKRPSGIPERFSGSNSGNTATLTISGTQAEDEADYYCQSYDSEADSEVFGGGTKLTVLG
notes: as for B1
B10: TP-2G7 (Fab, V domains shown)
VH: QVQLVESGGGLVQPGGSLRLSCAASGFTFNSYAMSWVRQAPGKGLEWVSNISSNSSNTYYADSVKGRFTISRDNSKNTLYLQMNSLRAEDTAVYYCARKGGGEHGFFPSDIWGQGTLVTVSS
VL: B9 VL with I27L, R28G, V45L, S51N, K52N, S89T, E93N, A94N, D95E, E97I
notes: as for B1
B11: TP-2G2 (Fab, V domains shown)
VH: QVQLVESGGGLVQPGGSLRLSCAASGFTFSSYAMNWVRQAPGKGLEWVSAILSDGSSTSYADSVKGRFTISRDNSKNTLYLQMNSLRAEDTAVYYCARYPDWGWYTDVWGQGTLVTVSS
VL: DIELTQPPSVSVAPGQTARISCSGDNIRKFYVHWYQQKPGQAPVLVIYGTNKRPSGIPERFSGSNSGNTATLTISGTQAEDEADYYCQSYDSKFNTVFGGGTKLTVLG
notes: as for B1
B12: TP-3A3 (Fab, V domains shown)
VH: QVQLVESGGGLVQPGGSLRLSCAASGFTFNNNAISWVRQAPGKGLEWVSAINSSSSSTSYADSVKGRFTISRDNSKNTLYLQMNSLRAEDTAVYYCARGHHRGHSWASFIDYWGQGTLVTVSS
VL: DIELTQPPSVSVAPGQTARISCSGDNIGSKYVHWYQQKPGQAPVVVIYEDSDRPSGIPERFSGSNSGNTATLTISGTQAEDEADYYCQSWDKSEGYVFGGGTKLTVLG
notes: as for B1
B13: TP-3E1 (Fab, V domains shown)
VH: QVQLVESGGGLVQPGGSLRLSCAASGFTFSNYAMTWVRQAPGKGLEWVSVISSVGSNTYYADSVKGRFTISRDNSKNTLYLQMNSLRAEDTAVYYCARPTKAGRTWWWGPYMDVWGQGTLVTVSS
VL: DIELTQPPSVSVAPGQTARISCSGDNIGSYYAYWYQQKPGQAPVLVIYDDSNRPSGIPERFSGSNSGNTATLTISGTQAEDEADYYCQSYDSTGLLVFGGGTKLTVLG
notes: as for B1
B14: TP-2D7 (Fab, V domains shown)
VH: QVQLQQSGPGLVKPSQTLSLTCAISGDSVSSNSAAWGWIRQSPGRGLEWLGLIYYRSKWYNDYAVSVKSRITINPDTSKNQFSLQLNSVTPEDTAVYYCARFGDTNRNGTDVWGQGTLVTVSS
VL: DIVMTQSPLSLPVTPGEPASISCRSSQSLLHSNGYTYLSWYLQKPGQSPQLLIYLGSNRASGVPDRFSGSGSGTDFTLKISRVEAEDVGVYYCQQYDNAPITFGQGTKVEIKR
notes: as for B1
B15: TP-3C3 (Fab, V domains shown)
VH: B14 VH with L52V, F102A, G103R, D104A, T105K, N106K, R107S, N108G, T110F, V112Y
VL: DIQMTQSPSSLSASVGDRVTITCRASQSINPYLNWYQQKPGKAPKLLIYAASNLQSGVPSRFSGSGSGTDFTLTISSLQPEDFAVYYCQQLDNRSITFGQGTKVEIKR
notes: as for B1
B16: TP-3A4 (Fab, V domains shown)
VH: QVQLVESGGGLVQPGGSLRLSCAASGFTFSSYWMHWVRQAPGKGLEWVSSISYDSSNTYYADSVKGRFTISRDNSKNTLYLQMNSLRAEDTAVYYCARYGGMDYWGQGTLVTVSS
VL: DIELTQPPSVSVAPGQTARISCSGDNLRDKYASWYQQKPGQAPVLVIYSKSERPSGIPERFSGSNSGNTATLTISGTQAEDEADYYCSSYTLNPNLNYVFGGGTKLTVLG
notes: as for B1
B17: TP-2B9 (Fab, V domains shown)
VH: QVQLQQSGPGLVKPSQTLSLTCAISGDSVSSNSAAWGWIRQSPGRGLEWLGMIYHRSKWYNDYAVSVKSRITINPDTSKNQFSLQLNSVTPEDTAVYYCARYSSIGHMDYWGQGTLVTVSS
VL: DIQMTQSPSSLSASVGDRVTITCRASQSIRSYLAWYQQKPGKAPKLLIYKASNLQSGVPSRFSGSGSGTDFTLTISSLQPEDFAVYYCHQYSDSPVTFGQGTKVEIKR
notes: as for B1
B18: TP-2G5 (Fab, V domains shown)
VH: B17 VH with G37S, M52F, H55Y, Y102H, S103N, S104P, I105D, G106L, H107G, M108F
VL: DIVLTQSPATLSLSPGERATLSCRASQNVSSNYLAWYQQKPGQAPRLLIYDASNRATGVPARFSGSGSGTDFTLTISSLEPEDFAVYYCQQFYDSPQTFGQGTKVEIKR
notes: as for B1
B19: TP-3C2 (Fab, V domains shown)
VH: QVQLQQSGPGLVKPSQTLSLTCAISGDSVSSSSAAWSWIRQSPGRGLEWLGMIYYRSKWYNHYAVSVKSRITINPDTSKNQFSLQLNSVTPEDTAVYYCARGGSGVMDVWGQGTLVTVSS
VL: B17 VL with R30T, S31N, A34N, K50D, A51V, H89Q, D93G, S94Y, V96L
notes: as for B1
B20: TP-2E3 (Fab, V domains shown)
VH: B17 VH with H55Y, Y102V, S103N, S104Q, I105Y, G106T, H107S, M108S
VL: DIALTQPASVSGSPGQSITISCTGTSSDIGGYNYVSWYQQHPGKAPKLMIYGVNYRPSGVSNRFSGSKSGNTASLTISGLQAEDEADYYCSSADKFTMSIVFGGGTKLTVLG
notes: as for B1
B21: TP-2H10 (Fab, V domains shown)
VH: B17 VH with S33G, M52F, H55R, D62S, Y102Q, S103D, S104G, I105M, H107G, Y110S
VL: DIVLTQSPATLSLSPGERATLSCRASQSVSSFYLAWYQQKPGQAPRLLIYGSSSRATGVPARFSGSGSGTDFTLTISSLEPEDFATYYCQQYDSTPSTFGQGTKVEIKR
notes: as for B1

Changes are numbered by the printed parent chain.

The target of the experiment is T1, ヒトTFPI (human tissue factor pathway …). Description: ELISA, Fab in bacterial lysate on coated human TFPI. In general terms: An ELISA detects its analyte on a solid surface through an enzyme-linked reagent.
Regarding B1, the binding result was “binds”.
Then B2, with “binds”; and B3, with “binds”; and B4, with “binds”.
Then B5, with “binds”; and B6, with “binds”.
Consider B7, for which the binding result is reported as “binds”.
Then B8, with “binds”; and B9, with “binds”.
Then B10, with “binds”; and B11, with “binds”.
B12: the binding result was “binds”.
Then B13, with “binds”.
Turning to B14, the binding result is given as “binds”.
Then B15, with “binds”; and B16, with “binds”; and B17, with “binds”.
Then B18, with “binds”; and B19, with “binds”; and B20, with “binds”.
Then B21, with “binds”.
